Source: patent publication US20190352343A1 (AUCKLAND UNISERVICES, published 2019)

What was measured:
[1] = target: Cpe0147^439-563 truncated protein domain (Clostridium perfringens); assay: SDS-PAGE, ester bond ligation in the presence of calcium
[2] = target: Cpe0147^439-563 truncated protein domain (Clostridium perfringens); assay: SDS-PAGE, ester bond ligation in the presence of glycerol

Substance: Cpe0147^565-587 synthetic peptide
- percent of protein converted (ester bond formed) [1]: 40%
- percent of protein converted (ester bond formed) [2]: 70%
